Results reported in patent publication US6417168.
Blank lines part the entries; values can stand above or below the substance they belong to.

How the values were obtained:
[1] = target: human epidermal growth factor receptor (EGFR), full-length wild type (human) (UniProt P00533); test: cell-based or functional assay
[2] = target: ΔEGFR, extracellular-deleted mutant human EGFR (EGFRvIII) (human) (UniProt P00533); test: cell-based or functional assay

EGF-induced down-regulation of cell surface EGFR (flow cytometry), maximum reduction [1]: 20 to 25%
Substance: N691stop (truncated rat cellular p185, stop codon for Thr^691) (from UniProt P06494 23-690) (receptor)

EGF-induced down-regulation of cell surface EGFR (flow cytometry), maximum reduction [1]: 20 to 25%
Substance: N757 (Nneu K757M, ATP-binding mutant of rat cellular p185) (from UniProt P06494 23-1257) (receptor)

apoptosis of U87/T691 cells, serum deprivation combined with radiation (DAPI) [1]: 33% | inhibition of anchorage-independent growth in U87MG parental cells lacking ΔEGFR [1]: 75.2% | phosphorylation content of immunoprecipitated p155ΔEGFR monomers (scanning densitometry, PY-20 blot) [2]: 33.7% | soft agar growth of U87MG.ΔEGFR/T691s cells, reduction compared to U87MG.ΔEGFR cells [2]: 45% | soft agar growth of U87MG.ΔEGFR/T691s cells, reduction compared to parental U87MG cells [2]: 41.3%
Substance: T691stop neu (truncated rat oncogenic p185neu, stop codon at amino acid 691, val→glu at amino acid 664) (from UniProt P06494 23-687) (receptor)

co-downregulation of cellular p185 with EGFR upon EGF treatment (flow cytometry, M1 cells) [1]: 20%
Substance: wildtype cellular rat p185 (Nneu) (from UniProt P06494 23-1257) (receptor)
